The supplement of paper PMC10567573

B1: ZNF277 (parent)
chain: ILREELQKQRLREILEQQQQERND

Variants of: B1
Assay: protein stability index of a GFP-peptide fusion (GPS, HEK-293T) (PSI 1-6); higher = more stable
Details: c terminus: a fixed tail appended
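Note: lentivirally expressed fusions sorted by FACS into six bins by GFP to DsRed ratio, PSI derived from sequencing read proportions per bin multiplied by bin number.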

Protein stability index, by site and new letter:
L6: G 4.9, P 5.5, Y 4.22, F 4.49, V 4.65, K 4.96, N 4.65, T 4.75, W 5.58, R 4.88, E 5.19, S 4.44, M 3.89, Q 3.69, A 4.4, I 4.56, H 4.59, C 4.18, D 4.76
Q9: T 4.01, I 4.18, R 4.41, L 4.41, Y 3.9, M 4.32, C 4.41, S 4.41, G 4.05, K 4.42, F 4.12, V 4.15, W 3.53, E 3.04, D 4.98, H 5.05, P 4.52, N 3.79
L15: N 4.32, V 4.37, T 4.67, Y 4.18, C 4.62, E 4.99, Q 5.14, P 4.54, G 4.94, K 4.37, R 4.82, F 4.22, S 4.99, H 5.11, I 4.48, W 4.14, M 4.03, A 5.04, D 4.77
I14: N 4.46, H 3.89, L 3.01, T 4.84, K 3.53, V 4.25, M 4.3, Y 4.34, R 3.49, P 5.11, Q 4.81, D 5.07, G 4.74, A 5.04, F 3.5, E 4.85, C 4.13
K8: A 4.7, V 4.07, Y 4.11, Q 4.98, H 4.41, G 4.82, S 4.81, R 3.66, C 3.96, L 3.63, T 4, E 5.3, D 4.43, W 3.82, I 3.1, M 4.12, N 4.53, P 5.07, F 4.38
E21: D 4.22, Q 3.38, T 4.09, N 3.9, G 4.04, A 4.39, V 3.2, W 2.95, C 3.04, I 2.94, M 3.73, P 3.04, S 4.41, H 4.61, K 4.26, L 3.52, F 3.4, R 2.69, Y 3.73
Q17: V 4.22, G 4.25, T 4.16, I 3.33, R 3.77, M 3.88, A 3.83, F 3.87, H 4.38, E 4.82, P 4.2, W 3.49, D 4.54, C 3.6, S 4.63, L 4.29, N 4.51
Q18: D 4.46, N 4.37, T 3.57, I 2.52, A 3.98, F 4.37, L 3.37, Y 2.9, M 3.59, E 4.93, K 3.72, V 3.83, R 4.97, S 3.99, C 3.31, W 4.15, P 4.68, G 4.57
L11: R 4.37, Q 5.05, T 4.66, A 4.83, S 4.68, E 5.06, W 3.94, I 4.52, V 2.73, P 4.38, F 4.09, Y 4.58, N 4.76, D 4.8, M 4.91, H 4.94, K 4.31, G 5.22, C 4.71
R12: V 4.41, I 4.15, M 4.58, Q 4.72, G 5.05, F 4.23, A 4.73, E 5.08, W 3.67, D 5.8, C 4.45, K 4.6, T 5.29, L 4.36, P 4.78, N 4.86, H 4.14, Y 3.87
Q20: M 3.96, S 4.37, R 4.41, A 4.93, W 3.18, G 4.22, I 4.36, C 4.2, P 4.17, N 4.3, Y 4.16, E 5.03, L 4.05, T 3.29, F 3.44, H 3.94, V 3.74, K 4.51
Q19: G 4.57, T 3.64, W 2.85, Y 3.98, N 3.5, P 4.29, E 3.98, K 3.7, V 4.44, A 4.13, C 4.45, H 4.67, L 3.87, D 4.4, S 4.41, F 2.91, M 3.35
E13: Y 4.07, A 3.74, M 4.01, R 4.11, H 4.46, T 4.58, S 4.18, F 3.77, N 4.05, P 4.56, G 4.54, V 4.06, K 4.22, Q 4.22, C 3.76, L 3.75, I 4.06
Q7: P 5, V 3.58, A 4.12, H 4.47, S 4.11, T 3.62, N 4.44, C 4.24, G 5.06, R 4.1, D 4.26, E 5.22, L 3.64, W 2.37, F 2.93, K 3.46, M 3.74, I 2.9
D24: A 3.47, G 3.77, E 4.12, F 3.26, I 3.64, C 3.91, H 3.16
E5: Y 3.55
N23: R 3.75, C 3.98, S 4.05, H 4.04, W 3.22, T 4.37, Q 4.13, D 4.96, P 4.47, E 4.59, Y 3.56, F 3.73, A 4.53, L 3.92, K 4.1, V 3.89, I 4.02, G 3.98, M 4.14
R22: E 4.61, D 4.92, A 4.4, S 4.73, H 4.4, T 4.76, M 4.45, W 3.72, V 3.53, K 4.63, Y 4.54, P 4.57, C 4.48, N 4.75, G 4.67, I 3.81, F 3.81, Q 4.44, L 4.46
E16: K 3.83, W 2.87, M 3.81, S 4.04, D 4.61, T 4.71, V 3.9, Q 3.77, P 4.8, G 3.51, N 3.89, H 3.87, L 3.63, I 3.74, R 3.53, F 3.66, A 3.07
R10: C 3.28, V 4.07, E 4.83, I 3.41, A 4.38, F 3.47, T 4.59, G 4.65, H 4.85, L 2.56, M 3.58, D 5.47, W 3.23, K 4.59, N 4.51, P 4.83, Y 4.3, S 4.7
